The target in one assay is Fc. The assay is described as follows: mono phage ELISA; Fc coated 100 ng/well; anti-M13-HRP. On the technique in general: An ELISA detects its analyte on a solid surface through an enzyme-linked reagent.
For assay [1], the target named is IL-6R-Fc 항원 (human) (UniProt P08887). The assay is described as follows: mono phage ELISA; ratio of the IL-6R full signal to the a-myc signal.
Assay [2] has the same target. The assay is described as follows: mono phage ELISA; antigen coated 100 ng/well; anti-M13-HRP.

Chain of UniProt P08887 (P08887 20-365 limits assumed): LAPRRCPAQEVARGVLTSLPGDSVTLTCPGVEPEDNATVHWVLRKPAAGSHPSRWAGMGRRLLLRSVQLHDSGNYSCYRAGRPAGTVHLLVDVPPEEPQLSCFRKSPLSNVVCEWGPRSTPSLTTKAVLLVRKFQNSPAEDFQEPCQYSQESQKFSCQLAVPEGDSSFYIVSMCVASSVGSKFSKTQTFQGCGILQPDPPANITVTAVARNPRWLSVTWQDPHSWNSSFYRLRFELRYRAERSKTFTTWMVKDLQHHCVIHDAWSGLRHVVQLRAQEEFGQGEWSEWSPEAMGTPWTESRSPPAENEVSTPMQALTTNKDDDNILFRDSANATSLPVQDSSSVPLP

B1: 모노 파아지 클론 A7 (scFv, V domains shown)
VH: QMQLVESGGGLVQPGTSLRLSCAASGFKFEDYAMHWVRQAPGKGLEWVSGVSWNSGTIAYVDSVKGRFTISRDNAKNSLYLQMNSLRAEDTAVYYCARDFTYFYESSGYYAFDLWGQGTMVTVSS
VL: SQLVLTQPPSVSGAPGQRVTISCTGTNSNIGAGYDVHWYQQVPGTTPKLLIYGNTNRPSGVPDRFSGSKSGTSASLAITGLQAEDGGDYYCQSFDSSLTGSVFGTGTKVTVL
Regarding B1, the OD 490 nm (Fc) in the assay with Fc was determined as 0.0421 OD490. The Ratio with IL-6R-Fc 항원 (human) [1] amounted to 31.1. Also, the OD 490 nm (IL-6R full) with IL-6R-Fc 항원 (human) [2] worked out at 2.48 OD490.

B2: 모노 파아지 클론 F2 (scFv, V domains shown)
VH: QVQLVESGAEVKKPGASVKVSCKASGYTFTNYYMHWVRQAPGQGLEWMGIINPSGGNTGYAQKFQGRVTMTRDMSTSTAYMELSSLRSEDTAVYYCARGLPWGENGLDVWGQGTTVTVSS
VL: SQLVLTQPSSVSGAPGQTVTISCTGSSSNIGAGYDVHWYQQLPGTAPKVLIYGDSDRPSGVPDRFSGSKSATSASLAITGLQAEDEADYYCQSYDSSLSAYVFGTGTKVTVL
Molecule B2 showed an OD 490 nm (Fc) with Fc of 0.0405 OD490. Also, the Ratio with IL-6R-Fc 항원 (human) [1] came out at 9.96. In the assay with IL-6R-Fc 항원 (human) [2], this molecule showed an OD 490 nm (IL-6R full) of 2.86 OD490.

B3: 모노 파아지 클론 B10 (scFv, V domains shown)
VH: QVQLVESGGGLVQPGGSLRLSCAASGFIFDDYAMFWVRQVPGKGLEWVAGINWNGNGIGYGDSVRGRFIISRDNARNSLDLQMNSLRAEDTAVYYCARPSLYGGNSEFDLWGQGTLVTVSS
VL: SQLVLTQPPSVSGAPGQTVTISCTGPTIGAGYDVHWYQQLPGAAPKLLIYGNLNRPSGVPDRFSGSKSGTSASLAITDLQAEDEADYYCHTYDSSLSGSWVFGGGTKLTVL
For B3, the OD 490 nm (Fc) with Fc came out at 0.0406 OD490. For the same molecule, the Ratio in the assay with IL-6R-Fc 항원 (human) [1] came to 18.6. The molecule also displayed an OD 490 nm (IL-6R full) in the assay with IL-6R-Fc 항원 (human) [2] of 2.1 OD490.

B4: 모노 파아지 클론 D2 (scFv, V domains shown)
VH: QVQLVESGAEVKKPGSSVKVSCKGSGDTFPNYAINWVRQAPGQGPEWMGRIIPMLGTSDYAEKFQGRVTITADKSTNTAYMGLNSLRSEDTAVYYCVKGPRYYGTDSYYLEKWGQGTMVTVSS
VL: B3 VL
In the case of B4, the OD 490 nm (Fc) in the assay with Fc is 0.0415 OD490. For the same molecule, the Ratio with IL-6R-Fc 항원 (human) [1] was found to be 7.71. The same molecule came in with an OD 490 nm (IL-6R full) with IL-6R-Fc 항원 (human) [2] of 2.34 OD490.

The values are drawn from patent KR20130126543A.
